From patent US20230167458A1, “FORSKOLIN-INDUCIBLE PROMOTERS AND HYPOXIA-INDUCIBLE PROMOTERS” (ASKLEPIOS BIOPHARMACEUTICAL, INC., priority 2020, published 2023)

What was measured:
HEK293-T = experiment: Luciferase expression in normoxia vs 24 h hypoxia, transiently transfected HEK293-T; format: cell-based, human; details: for relative rank of promoter strength: 24 h hypoxia vs 24 h normoxia
Procedure: HEK293-T are seeded at a density of 20%. Once they reached a confluence between 60 and 80%, the media is changed with DMEM (#21885-025—Thermo Scientific) supplemented with 10% FBS (Gibco, 26140). After 3 hours, the cells were transfected by a transfection mix. The transfection mix is prepared by adding DNA ([…] per 6 well plate) and PEI 25 kDA (#23966-1—Polyscience) in a ratio of 1:3 in sterile DPBS (#14190169—ThermoFisher Scientific). After mixing, the transfection mix is incubated at room temperature for 30 minutes and then added directly to the cells. After 16 to 18 h post transfection, the media is changed to DMEM+2% FBS. The transfected DNA was one of the vectors where the promoter constructs (RTV-015, HYBT, RTV-016, HV3C) or a control promoter (CMV-IE) were used to drive luciferase expression and β-galactosidase containing pcDNA6 plasmid. The β-galactosidase containing plasmid was used as internal control for transfection efficiency (Thermofisher, V22020).
(§1) After transfection the cells were incubated for 24 hrs in normoxic conditions (20% oxygen). Induction of the promoters was assessed by using luciferase activity after 24 hrs in normoxia or hypoxia (5% oxygen, 10% carbon dioxide and 85% nitrogen). Hypoxia was achieved by gas displacement in a sealed hypoxia chamber.
(§2) Luciferase activity was measured using LARII (Dual Luciferase Reporter 1000 assay system, Promega, E1980).
Media was removed from the cells at the respective time point (0, 3, 5, 24 hrs after induction). The cells were washed once in 300 μl of DPBS. Cells were lysed by adding 100 μl of passive lysis buffer to the cells and incubation with rocking for 15 minutes. The cell debris was pelleted by centrifugation of the plate at max speed in a benchtop centrifuge for 1 min. 10 μl of supernatant was pipetted into white 96-well plate and luminescence measured by addition of 50 μl of LARII substrate.
β-galactosidase activity was measured as per manufacturer's instructions (Mammalian βGalactosidase Assay Kit, 75707/75710, Thermo Scientific) using 25 μl of lysate. 25 μl of lysate was transferred into a microplate well and mixed with 25 μl of β-galactosidase Assay Reagent, equilibrated to room temperature. The mixture was incubated at 37° C. for 30 min and absorbance measured at 405 nm.
(§3) Luciferase readouts were normalised to β-galactosidase to produce normalised relative luminometer units (RLUs).

CHO-GSK1SV = experiment: Luciferase expression in normoxia vs 24 h hypoxia, transiently transfected CHO-GS suspension cells; format: cell-based, chinese hamster; details: for relative rank of promoter strength: transient CHO-GSK1SV, hypoxia; for inducibility after 24 hours in hypoxia (rank) / luciferase activity in normoxia: transient CHO_GS
Procedure: 40 ml of cells were grown in a 250 ml vented Erlenmeyer flask (Sigma-Aldrich CLS431144) at 37° C., 20% O2, 8% CO2 with agitation at 100 rpm. Cells were seeded as at 300,000 cells/ml.
(§4) One day before transfection, the cells were counted using a haemocytometer and split to 500,000 cells/ml.
(§5) On the day of transfection, the cells are seeded to 1,000,000 cells/ml in 500 μl of appropriate medium (Thermofisher, CD-CHO 10743029) in a 24 well plate. […] of DNA per well was then added to 10 μl of OptiMem medium (Thermofisher; 11058021) and incubated for 5 minutes at room temperature.
Concurrently, 0.625 μl of Freestyle Max reagent (Thermofisher, 16447100) was made up to 10 μl by addition of OptiMem and incubated for 5 minutes at room temperature. After this incubation, both mixes were added to the same tube and incubated at room temperature for 25-30 minutes. The DNA/Max reagent mix (20 μl/well) was then added directly to the cells and the cells incubated at 37 C, 8% CO2 with agitation at 100 rpm.
The transfected DNA was one of the vectors where the promoter constructs (RTV-015, HYBT, RTV-016, HV3C) or a control promoter (CMV-IE) were used to drive luciferase expression and β-galactosidase containing pcDNA6 plasmid. The β-galactosidase containing plasmid was used as internal control for transfection efficiency (Thermofisher, V22020).
as §1, with “chamber. Luciferase activity was measured as described above.” for “chamber.”

HEK293-F = experiment: Luciferase time course under hypoxia, transiently transfected HEK293-F; format: cell-based, human; details: hypoxia 5% oxygen, printed order RTV-015, SYNP-HYP-001, RTV-016, HYBT, HV3C
Procedure: The constructs were initially used to drive luciferase expression in HEK293-F and HEK293-T in hypoxia.
40 ml of cells were grown in a 250 ml vented Erlenmeyer flask (Sigma-Aldrich CLS431144) at 37° C., 20% O2, 8% CO2 with agitation at 100 rpm. Cells were seeded as described in the manufacturer's instructions (300,000 cells/ml). HEK293-F were obtained from Thermofisher, R79007.
as §4
as §5, with “(Freestyle 293 expression medium, 12338002)” for “(Thermofisher, CD-CHO 10743029)”
Concurrently, 0.625 μl of Max reagent (Thermofisher, 16447100) was made up to 10 μl by addition of OptiMem and incubated for 5 minutes at room temperature. After this incubation, both mixes were added to the same tube and incubated at room temperature for 25-30 minutes. […]
After transfection the cells were incubated for 24 hrs in normoxia conditions (20% oxygen) before being switched to a gas mix of 5% oxygen, 10% carbon dioxide and 85% nitrogen (hypoxia). […] Induction of the promoters was assessed by using luciferase activity after 3, 5 and 24 hrs in hypoxia.
as §2
Media was removed from the cells at the respective time point (0, 3, 5, 24 hrs after induction). […] 10 μl of supernatant was pipetted into white 96-well plate and luminescence measured by addition of 50 μl of LARII substrate.
β-galactosidase activity was measured as per manufacturer's instructions (Mammalian βGalactosidase Assay Kit, 75707/75710, Thermo Scientific) using 25 μl of lysate. […] The mixture was incubated at 37° C. for 30 min and absorbance measured at 405 nm.
as §3

B1: RTV-015: synthetic hypoxia-inducible promoter, SEQ ID NO: 81; 5 HRE1 elements spaced by 40 bp and minimal promoter MP1 (nucleic acid)
DNA: ACGTGCGATGATGCGTAGCTAGTAGTGATGATGCGTAGCTAGTAGTACGTGCGATGATGCGTAGCTAGTAGTGATGATGCGTAGCTAGTAGTACGTGCGATGATGCGTAGCTAGTAGTGATGATGCGTAGCTAGTAGTACGTGCGATGATGCGTAGCTAGTAGTGATGATGCGTAGCTAGTAGTACGTGCTTGGTACCATCCGGGCCGGCCGCTTAAGCGACGCCTATAAAAAATAGGTTGCATGCTAGGCCTAGCGCTGCCAGTCCATCTTCGCTAGCCTGTGCTGCGTCAGTCCAGCGCTGCGCTGCGTAACGGCCGCC
modifications: Synp-RTV-015
notes: 5 HRE1 elements spaced by 40 bp and minimal promoter MP1
inducibility after 24 hours in hypoxia (rank) (HEK293-T): lowest
luciferase activity in normoxia (HEK293-T): almost no luciferase activity
relative rank of promoter strength (HEK293-T): weakest
relative rank of promoter strength (CHO-GSK1SV): weakest
inducibility after 24 hours in hypoxia (rank) (CHO-GSK1SV): lowest
luciferase activity in normoxia (CHO-GSK1SV): almost no luciferase activity
relative rank of promoter activity (HEK293-F): weakest

B2: HV3C: synthetic hypoxia-inducible promoter, SEQ ID NO: 85/87; 4 HRE3 elements and CMV minimal promoter (nucleic acid)
DNA: GATCTTTGTATTTAATTAAGACCTTGAGTACGTGCGTCTCTGCACGTATGGCGATTAAGACCTTGAGTACGTGCGTCTCTGCACGTATGGCGATTAAGACCTTGAGTACGTGCGTCTCTGCACGTATGGCGATTAAGACCTTGAGTACGTGCGTCTCTGCACGTATGGCGATTAATCCATATGCAGGTCTATATAAGCAGAGCTCGTTTAGTGAACCGTCAGATCGCCTAGATACGCCATCCACGCTGTTTTGACCTCCATAGAAGATCGCCACC
modifications: Synp-HV3C
notes: 4 HRE3 elements and CMV minimal promoter
inducibility after 24 hours in hypoxia (rank) (HEK293-T): highest
luciferase activity in normoxia (HEK293-T): almost no luciferase activity
relative rank of promoter strength (HEK293-T): strongest
relative rank of promoter strength (CHO-GSK1SV): strongest
inducibility after 24 hours in hypoxia (rank) (CHO-GSK1SV): highest
luciferase activity in normoxia (CHO-GSK1SV): almost no luciferase activity
relative rank of promoter activity (HEK293-F): strongest
